The target in test [1] is T1, human PD-L1/His fusion protein (human, UniProt Q9NZQ7 19-239). Put plainly: BLI off-rate; test group 3. As for the experimental part:
(§1) Briefly, antibodies were characterized for affinities and binding kinetics by Octet®RED96 biolayer interferometry (Pall ForteBio LLC). Antibodies were captured by Anti-hIgG Fc Capture (AHC) Biosensors (Pall) at a concentration of 100 nM for 30 seconds. Sensors were then dipped into running buffer (1×pH 7.2 PBS, 0.05% Tween 20, 0.1% BSA) for 60 seconds to check baseline. Binding was measured by dipping sensors into a single concentration of recombinant human PD-L1/His fusion protein (Novoprotein). Dissociation was followed by dipping sensors into running buffer for 1200 seconds. The association and dissociation curves were fitted to a 1:1 Langmuir binding model using ForteBio Data Analysis software (Pall). […] The off-rate ratio serves as a data normalization. Accordingly, in each test group, the off-rate ratios of the humanized antibodies can be compared with that of the chimeric antibody, and the off-rate ratios of each of the humanized antibodies can be compared to one another within all test groups.

Test [2] addresses T1, human PD-L1/His fusion protein. Briefly: BLI Octet RED96, antibody on AHC sensor, single conc. PD-L1/His; test group 3. As for the experimental part: as §1
Test [3] has the same target. Put plainly: BLI Octet RED96, antibody on AHC sensor, single conc. PD-L1/His; test group 1. As for the experimental part:
as §1, with “All 15 antibodies in Table 13 were assayed for and ranked by dissociation rate constant (koff). […] Briefly,” for “Briefly,”, “check the” for “check”
On the technique in general: In BLI a coated tip is dipped into the sample, and binding shifts an interference pattern.

For test [4] the target is unchanged. Put plainly: BLI off-rate; test group 1. The protocol: as §1, with “All 15 antibodies in Table 13 were assayed for and ranked by dissociation rate constant (koff). […] Briefly,” for “Briefly,”, “check the” for “check”
For test [5] the target is unchanged. Put plainly: BLI off-rate; test group 4. As for the experimental part:
as §1

Test [6] has the same target. Briefly: BLI Octet RED96, antibody on AHC sensor, single conc. PD-L1/His; test group 4. As for the experimental part:
as §1

The target is the same in test [7]. Put plainly: BLI Octet RED96, antibody on AHC sensor, single conc. PD-L1/His; test group 2. As for the experimental part:
as §1, with “All 15 antibodies in Table 13 were assayed for and ranked by dissociation rate constant (koff). […] Briefly,” for “Briefly,”, “check the” for “check”

The target is the same in test [8]. Briefly: BLI off-rate; test group 2. As for the experimental part:
as §1, with “All 15 antibodies in Table 13 were assayed for and ranked by dissociation rate constant (koff). […] Briefly,” for “Briefly,”, “check the” for “check”

This is an account of results in patent publication US20230242675A1 (SHANGHAI EPIMAB BIOTHERAPEUTICS, published 2023).

In general, koff refers to a measure of how fast the partners let go of each other. A lower koff goes with a long-lived complex.

Where a chain is given by its changes, count along the chain named. Names and notes keep the numbering of the source.

T1 sequence (Q9NZQ7 19-239 limits assumed): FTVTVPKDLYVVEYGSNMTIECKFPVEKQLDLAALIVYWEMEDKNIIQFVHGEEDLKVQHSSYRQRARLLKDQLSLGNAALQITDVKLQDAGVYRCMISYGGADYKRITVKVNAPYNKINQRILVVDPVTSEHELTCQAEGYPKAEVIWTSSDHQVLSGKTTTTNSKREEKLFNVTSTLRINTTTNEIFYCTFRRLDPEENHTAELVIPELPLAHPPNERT

B1: HuEM0005-90-13 (antibody, human IgG1, V domains shown)
VH: EVQLVQSGAEVKKPGASVKVSCKASGYTFTSHSINWVRQATGQGLEWMGYMYIGNGYTEYNEKFKGRVTLTSNTSISTAYMELSSLRSEDTAVYYCAKITPVVAPYVMDYWGQGTSVTVSS
VL: DIQMTQSPSFLSASVGDRVTITCKASQDVGTAVAWYQQKPGKAPKLLIYWASTRHTGVPDRFTGSGSGTEFTLTISSLQPEDFATYYCQQYSSYPYTFGQGTKLEIK
As to B1, the “Off-Rate Ratio to that of EM0005-90c” value in test [1] came out at 115%. In test [2], the koff turned out to be 0.000439 s⁻¹.

B2: HuEM0005-86-4 (antibody, human IgG1, V domains shown)
VH: EVQLVQSGAEVKKPGASVKVSCKASGYTFTTYGINWVRQAPGQGLEWIGYIYIGNGYTEYNEKFKGRVTLTSDTSTSTAYMELSSLRSDDTAVYYCARDLMVIAPKTMDYWGQGTTVTVSS
VL: B1 VL with F10S, L11V, E70D, Q100G, L104V
Molecule B2 gave a koff in test [3] of 0.000957 s⁻¹. In addition, the “Off-Rate Ratio to that of EM0005-86c” value in test [4] is 78%.

B3: HuEM0005-90-20 (antibody, human IgG1, V domains shown)
VH: B1 VH with A24T, M48I, V68A
VL: B1 VL with Q3V, E70D
On to B3, for which the “Off-Rate Ratio to that of EM0005-90c” value in test [5] was found to be 111%. In test [6], the koff is 0.00249 s⁻¹.

B4: HuEM0005-86-12 (antibody, human IgG1, V domains shown)
VH: B2 VH with R67K, V68A
VL: B1 VL with F10S, L11V, A43S, E70D, Y87F, Q100G, L104V
In turn, B4 registered a koff in test [7] of 0.0015 s⁻¹. Moreover, the “Off-Rate Ratio to that of EM0005-86c” value in test [8] turned out to be 84%.

B5: HuEM0005-86-8 (antibody, human IgG1, V domains shown)
VH: B2 VH with I48M, L70M, S72T
VL: B1 VL with F10S, L11V, A43S, E70D, Y87F, Q100G, L104V
As for B5, in test [7], the koff stood at 0.00155 s⁻¹. Besides, the “Off-Rate Ratio to that of EM0005-86c” value in test [8] stood at 87%.

B6: HuEM0005-86-11 (antibody, human IgG1, V domains shown)
VH: B2 VH
VL: B1 VL with F10S, L11V, A43S, E70D, Y87F, Q100G, L104V
On to B6, for which the koff in test [7] was 0.00131 s⁻¹. For the same molecule, in test [8], the “Off-Rate Ratio to that of EM0005-86c” value was found to be 73%.

B7: HuEM0005-86-10 (antibody, human IgG1, V domains shown)
VH: B2 VH with I48M
VL: B1 VL with F10S, L11V, A43S, E70D, Y87F, Q100G, L104V
Take B7: the dissociation rate constant (koff) in test [7] amounted to 0.00157 s⁻¹. Further, the “Off-Rate Ratio to that of EM0005-86c” value in test [8] is 88%.

B8: HuEM0005-90-14 (antibody, human IgG1, V domains shown)
VH: B1 VH with M48I, V68A
VL: B1 VL
Regarding B8, the “Off-Rate Ratio to that of EM0005-90c” value in test [1] is 98%. For the same molecule, the koff in test [2] stood at 0.000376 s⁻¹.

B9: HuEM0005-90-18 (antibody, human IgG1, V domains shown)
VH: B1 VH with M48I, V68A
VL: B1 VL with Q3V, E70D
As for B9, the “Off-Rate Ratio to that of EM0005-90c” value in test [1] was 87%. Also, the koff in test [2] is 0.000334 s⁻¹.

B10: HuEM0005-90-17 (antibody, human IgG1, V domains shown)
VH: B1 VH
VL: B1 VL with Q3V, E70D
B10: in test [1], the “Off-Rate Ratio to that of EM0005-90c” value stood at 106%. For the same molecule, the koff in test [2] stood at 0.000405 s⁻¹.

B11: HuEM0005-90-16 (antibody, human IgG1, V domains shown)
VH: B1 VH with A24T, M48I, V68A
VL: B1 VL
With B11, in test [1], the “Off-Rate Ratio to that of EM0005-90c” value came out at 101%. The koff in test [2] was determined as 0.000387 s⁻¹.

B12: HuEM0005-90-15 (antibody, human IgG1, V domains shown)
VH: B1 VH with A24T, L70M
VL: B1 VL
For B12, the “Off-Rate Ratio to that of EM0005-90c” value in test [1] was 131%. In test [2], this molecule registered a koff of 0.000499 s⁻¹.

B13: HuEM0005-86-7 (antibody, human IgG1, V domains shown)
VH: B2 VH with T74P, S77R
VL: B1 VL with F10S, L11V, E70D, Q100G, L104V
In test [7], B13 came in with a koff of 0.00131 s⁻¹. Further, the “Off-Rate Ratio to that of EM0005-86c” value in test [8] was found to be 73%.

B14: HuEM0005-86-9 (antibody, human IgG1, V domains shown)
VH: B2 VH with I48M, L70M
VL: B1 VL with F10S, L11V, A43S, E70D, Y87F, Q100G, L104V
Regarding B14, the koff in test [7] came out at 0.0016 s⁻¹. Further, the “Off-Rate Ratio to that of EM0005-86c” value in test [8] came out at 89%.

B15: EM0005-90c(G55A) (antibody, human IgG1, V domains shown)
VH: QVQLKQSGAELVRPGSSVKMSCKTSGYTFTSHSINWVKQRPGQGLEWIGYMYIGNAYTEYNEKFKGKATLTSDTSSTTAYMQLSSLTSEDSAIYFCAKITPVVAPYVMDYWGQGTSVTVSS
VL: DIVMTQTHKFMSTSVGDRVSITCKASQDVGTAVAWYQQKPGQSPKLLIYWASTRHTGVPDRFTGSGSGTDFTLTISNVQSEDLADYFCQQYSSYPYTFGGGTKLELK
notes: Chimeric antibody with G55A in CDR-H2; also called HuEM0005-90C-G55A
On to B15, for which, in test [5], the “Off-Rate Ratio to that of EM0005-90c” value was determined as 113%. Further, the koff in test [6] amounted to 0.00255 s⁻¹.

B16: HuEM0005-87-15 (antibody, human IgG1, V domains shown)
VH: EVQLVQSGAEVKKPGASVKVSCKASGYSFTDYYINWVKQAPGQGLEWIGETIPNTGGTTYNQKFKAKATLTRDKSTSTAYMELKSLRSEDTAVYYCARYQSGSPFAYWGQGTTVTVSS
VL: EIVMTQSPATLSVSPGERATLSCKASQNVGTAVAWYQQKPGQAPRLLIYSASNRYTGVPARFSGSGSGTEFTLTISSLQSEDFAVYYCQQHYSTPYTFGGGTKLEIK
In the case of B16, in test [1], the “Off-Rate Ratio to that of EM0005-87c” value turned out to be 96%. The molecule also yielded a koff in test [2] of 0.00129 s⁻¹.

B17: HuEM0005-87-16 (antibody, human IgG1, V domains shown)
VH: B16 VH with S28T, K38R, I48M, K67R, A68V, L70M, R72V, K74T, A79V, K84S
VL: B16 VL with A60D, S63T
B17: in test [1], the “Off-Rate Ratio to that of EM0005-87c” value was found to be 69%. The koff in test [2] came to 0.000932 s⁻¹.

B18: HuEM0005-87-22 (antibody, human IgG1, V domains shown)
VH: B16 VH with S28T, K38R, I48M, K67R, A68V, R72V, K74T, A79V, K84S
VL: B16 VL with E1D, A60D, S63T, E70D
For the molecule B18, the “Off-Rate Ratio to that of EM0005-87c” value in test [5] was found to be 82%. For the same molecule, the koff in test [6] stood at 0.000738 s⁻¹.

B19: HuEM0005-87-20 (antibody, human IgG1, V domains shown)
VH: B16 VH
VL: B16 VL with A60D, S63T
Take B19: the “Off-Rate Ratio to that of EM0005-87c” value in test [5] was determined as 89%. In test [6], this molecule displayed a koff of 0.000801 s⁻¹.

B20: HuEM0005-87-23 (antibody, human IgG1, V domains shown)
VH: B16 VH with S28T, K38R, K67R, A68V, R72V, A79V, K84S
VL: B16 VL with E1D, A60D, S63T, E70D
Turning to B20, in test [5], the “Off-Rate Ratio to that of EM0005-87c” value came to 101%. Further, the koff in test [6] amounted to 0.000905 s⁻¹.

B21: HuEM0005-87-21 (antibody, human IgG1, V domains shown)
VH: B16 VH with S28T, K38R, I48M, K67R, A68V, L70M, R72V, K74T, A79V, K84S
VL: B16 VL with E1D, A60D, S63T, E70D
B21: the “Off-Rate Ratio to that of EM0005-87c” value in test [5] was 58%. The molecule further returned a koff in test [6] of 0.000522 s⁻¹.

B22: HuEM0005-87-24 (antibody, human IgG1, V domains shown)
VH: B16 VH with K38R, R72V, K84S
VL: B16 VL with E1D, A60D, S63T, E70D
For the molecule B22, in test [5], the “Off-Rate Ratio to that of EM0005-87c” value was determined as 113%. Also, the koff in test [6] was found to be 0.00101 s⁻¹.

B23: HuEM0005-87-19 (antibody, human IgG1, V domains shown)
VH: B16 VH with K38R, R72V, K84S
VL: B16 VL with A60D, S63T
B23: in test [5], the “Off-Rate Ratio to that of EM0005-87c” value worked out at 87%. The molecule also showed a koff in test [6] of 0.000782 s⁻¹.

B24: HuEM0005-87-17 (antibody, human IgG1, V domains shown)
VH: B16 VH with S28T, K38R, I48M, K67R, A68V, R72V, K74T, A79V, K84S
VL: B16 VL with A60D, S63T
As to B24, the “Off-Rate Ratio to that of EM0005-87c” value in test [1] turned out to be 66%. The molecule also had a koff in test [2] of 0.000888 s⁻¹.
